Experimental data from a protein production outcome set (Wang et al. 2014).

assay: label from the status in PepcDB records

With “MLSNILPLSIGAIFGTTARWLLNLAVPASLSPATGNLFANWTGALLIGIFAETVSHPQWKLLLITGFFGSLTTLSGFSLETVTLLQSNRPASALANIFLHTAGSLLLTWLGLKIGTAVK” as the sequence, how does the protein production read?
Its protein production is “failed”.

For “MLSPCCHGQSMKTKITGKTISRIVPAEKVYRIHDTLQPGLSIRVLPSGHASYMVTWARNKAATLGRVGVITLEQARTDASRYLADAHAIGEPVAITEKRTGAAMPTLDHFLTHTFEPWAAEHHRDAKNGNRAIRHSFEALLSIPLSSIDTKRVEQIRTAWLRAGLAPSTANRNITRLRGVLSRALEWGVLQEHPLKVRKLKVDDRSRVRYLSIEEETALREALEARSNEMRDARDSANKWRLERHKEPLADLRAVRYADHLEPLVVLSINTGVRRGEAFNLTWADVDLKNKLITVEGDTSKSGQTRHVPLNREALDTLTKWKEQRGGNGFVFPGQHGKRLDNVKKSWSGLLKLAKVERFRWHDLRHTFASKLVMAGVPLNTVRELLGHTDIKMTLRYAHLAPGTKAAAVELI”, which protein production is on record?
Its protein production is “failed”.

For “MLSVFVVNLRSNSAPFSFSRLLMHTTIVNERSLRTCNFPITLQDIRTLKELYRLKAETRDLRKPIVRNIMKQRVVGKGCLESLKNALYSLETIYIDDYTGQRLLRIDGMKQIEVDLTYEIRELQKDIYYLEYGEDRFIEYLAKFIPGFTDYVTEGVEMLRGKSFNAFITDRDGTTNNYCGRYRSSIQPIYNSVFLSRFAKNCCRYPMIVTSAPLKDFGILNVSINPEHIFVYAGSKGREFIDIDGQFHSFPIEPGKQELIRLLNERMQLLLLDPSFEKFNFIGSALQMKFGQTTIARQDITRSVNEAESAAFLEKIKGIVRDIDPEGKNFRIEDTGLDIEIILTIDVDPKTGMIRDFDKGDGLEFICRKMNIDHTGEPVLVCGDTSSDIPMLKKAMEMYDDVWAIFVTRDEKLMQRVREICPKSYMVPYPDILLTILGLLSL”, which protein production is on record?
Its protein production is “failed”.

For “MLSYYGRLSSEVYDIDKPIDHSFRDVEFYIDRLNLCRGHILEPATGTGRVLVPLLEKGFKVDGFDSSKDMLNICRDNCRKKGLNPKLFEAKMESFIQDTRYDAIIVPAGTFLLLHQRADSIRALQNFHKHLCSGGRLIIDILMQTDFSTGTVSTRTWVCSNGDLITLESKVVEVDYINQYTVSHNRYEKWREGVLIQTELERFPLRWYGLEEFKLILESTGFKDIVISSDYKFGQYPSNVKDVITFEAVAIN”, which protein production is on record?
Its protein production is “failed”.

Which protein production does the source give for “MLTAPPKEAARPTLMPRAQSYKDLTHLPAPTGKIFVSVYNIQDETGQFKPYPASNFSTAVPQSATAMLVTALKDSRWFIPLERQGLQNLLNERKIIRAAQENGTVAINNRIPLQSLTAANIMVEGSIIGYESNVKSGGVGARYFGIGADTQYQLDQIAVNLRVVNVSTGEILSSVNTSKTILSYEVQAGVFRFIDYQRLLEGEVGYTSNEPVMLCLMSAIETGVIFLINDGIDRGLWDLQNKAERQNDILVKYRHMSVPPESLEHHHHHH” here?
Its protein production is “failed”.

Which protein production does the source give for “MLTAQSEYVKKLRPLLPPEAFQADPKKLVILGLNLGIYVAGLTIARHLHQWPGQWLWLFLPMALLMGNSVTVFLFGSHDLMHGSVLKKRSKISYLISLLGLSLWWMPPSQWRSLHNQVHHNNTNSLRDPDRNYLHEQPKTWGKWIHHLFAPSGEVNTLWLIFGMGTAWGVHNFRNLISVLFFTGGNADFVPAAFTVKAQDRQRIWLELAAIGAVHLSILFYLQFQLIPIILGYFLPIFLGHAMGMFYIYTNHLACPMTDINDPLVNSVSLRMPKLFDCLHFNFSYHTEHHLFPDVNSDYYPLVQDLLQTHYPGQMNLLTAKEAWKMLLETPRHYQGETTLVGYNGGETIACPLPKNVPDLTETKVTASV” here?
The protein production was “failed”.

With “MLTFEKVLEIFADYLAADKTIEVYISRHGCVRVEFDQDFHYCTGEVCHTPRKLFDLLSDDYQTYLEIELTKGRRELTEDDIKEADTLCKRYLDRWKEELGLEHHHHHH” as the sequence, how does the protein production read?
Its protein production is “not failed”.

For “MLTIDTASRTFHCKTWVTGQTQGKAVIARERISFWGGFDPQTGRIVDPYSSLRGRDISDCVLILLSSKGSSGTSGMLSLATRAGHAPAAMIQVEMDPVTVMGCLVNNIPLLQATGFDPFEQIQDGDLVRIDGENGTITLAPGQALEHHHHHH”, which protein production is on record?
The protein production was “not failed”.

Which protein production does the source give for “MLTKLGIKGRELLLTILPASLMAAMLGGYFTWMQLSELQSQLLLRGEMIAQDLAPLSASALGRKDKVLLSRIATQTLEQPDVRAVSFLDVDRSPLAHAGPTMISPTPIGNSSQLLNSTGTDATRYLLPVFGNQRHLTSPIIPAEADTLMGWVDVEISHNGTLLRGYRSLFASLLLIFTGLAITAVVAVRLSRTINGPMSQIKQAVSQLKDGNLETRLPPLGSRELDELASGINRMAATLQNAQEELQMSIDQATEDVRQNLETIEIQNIELDLARKEALEASRIKSEFLANMSHEIRTPLNGILGFTHLLQKSELTPRQFDYLATIEKSADNLLSIINEILDFSKIEAGKLVLDNIPFNLRDLLQDTLTILAPAAHAKHLELVSLVYRDTPLALSGDPLRLRQILTNLVSNAIKFTREGTIVARAMLEDETEEHAQLRISVQDTGIGLSSQDVRALFQAFSQADNSLSRQPGGTGLGLVISKRLIEQMGGEIGVDSTPGEGSEFWISLKLPKAREDKEESLNLPLEGLRAAVLEHHDLARQALEHQLEDCGLHTVVFTNLENLLNGVTAAHETPAAIDLAVLGVTTLEISPERLRQHIWDLENLNCKVMVLCPTTEYALFQLAVHDVYTQLQAKPACTRKLQKALSELIAPRAIRADIAPPLSSRAPRVLCVDDNPANLLLVQTLLEDMGAEVMAVEGGYAAVNAVQQEAFDLVLMDVQMPGMDGRQATEAIRAWEAERGQSSLPIVALTAHAMANEKRSLLQSGMDDYLTKPISERQLAQVVLKWSGLALRNPAPERQNESLEAHVGPLVLDPEEGLRLAAGKADLAADMLAMLLASLDADREAIRVARASQDVQALIERIHRLHGATRYCGVPQLRTACQRAETLLKQDAPHTGDALDDLDKAIVRLETEARVTA” here?
Its protein production is “failed”.

With “MLTLDLSAVRCQNGVPFLRYYWNLPVNQSHSGPLANNHAQLGLLFISVAVLFWGMLPIALKLSGSFIDPVTLTWFRFLVALIVSILVQWSAGSLKQFAALDAKVWLRLILAGLFLMLNYVSFVYSLDYLAPGAAQLNFQTSPFFLAFGGVLFFKERLNAIQLSCFASLALGMLMFFHPFLDFSATDNHEIWLGVMIVQFSALSWTTYALLQKSLLNRLSPANVLLVIYALGIFAMAPFSDFSQFAQMNSFDWQVALFCAANTLIAYGCFGQSMKYWPTAQVSAMLALTPVFSFSATALVVSIGWWPEVFRADELDALSLFGIGVIIVSVMVVQLLPLYRQRRARRLQPI” as the sequence, how does the protein production read?
The protein production was “failed”.

Which protein production does the source give for “MLTLEIFRALLLGFTIGLTGALVPGPMLFATIELSLKKGWLAGPEVVFGHILVELVLSILILFGVASFIGSGAISAVSIIGGFSLTVFGLLTVKDAKTTASAGLSPETSGLKLTSNPVALGLITSVSNPYFWIWWLTAGSALVLKAYELGIIISIAYILGHWTADLSWFTAISGSFSRGKTLFSQQTHRYILYACGTFLIFFGLYFMFNYKGAAQLF” here?
The protein production was “failed”.

With “MLTMQEIKAHYRFTDEDAELLGSLFPLAETNKERLADQFYDYLLGIPETAEFLKEDLVLQKLKQTHQDWFVSLFAGSYDNRYIHNLQKIGHAHVRVGLNAHYVNVAMNVVRQFTLSIIQDNFPDPEERRQRREAVEKILDINLDIMSASYREEEMRKFFVSHRLESKLITATERFTYGLNLILVLALAGVSVSVVGLFIWDIGHIFQGSVEKGILSALGSLLILWMMIELIENEIKILKGGRFNILFFIGVIIVALIREILISTLRHDPLTTQVFLAGTLLVLGVVYFLVSKSQQPYTPH” as the sequence, how does the protein production read?
Its protein production is “failed”.

For “MLTNGMKYHEKLVDESSRNILFIGQDRISGLYDTIGILSIDRKNKKLKIIMIPRDLYIDYSSRVKHYLEENGRLNDPDFYKINAAHLIGPYMKYEGKFGAYSMNFLAELIKEIFDIEVHDYVRVNTEGFVQIVDLFGGVDINVPYDMHYDDIYQDLHIHINKGWNHLDGKKAEGFVRYRQSNDEMGNITHSIGDYERKKNQINFIKAFIEQHGTMSNIDKLPSLISTLNKYMKHSIGVGDVLTTYIGYAKDVVLYKYPIETYTVTGKDKYMNQRYYIVIENDNKTSKVVDLEHHHHHH”, which protein production is on record?
The protein production was “failed”.

Which protein production does the source give for “MLTPLQIYFPIGVVLLVAVVLAFTMLGLANVLGPRRPSLVKQTPFECGSEPIGSARERFGVKFYVVALLFIVFDIEAIFLYPWAVLLLPDGQGYPGLGWPGFISMGIFVFTLVAGLVYVWKKGVLDWAD” here?
The protein production was “failed”.
